This is an account of results in patent publication US20250320312A1 (OXITOPE PHARMA B V, published 2025).

What all share (test): scFv ELISA
(In an ELISA, binding on a coated surface is turned into a signal by an enzyme label.)

The target in test [1] is Peptide 5: Biotin-…-[Tyr(PC)]-acid.
Another test has as its target BSA (UniProt P02769).
Test [2] has as its target Peptide 1: Biotin-…-[Tyr(PC)]-acid.
The target in test [3] is T1, Peptide 8: Biotin-AEAAAKEAAAKEAAAKEAAAKAAA-Tyr-acid (N-terminal biotin; C-terminal acid; no PC).
T1 construct: control peptide without PC
T1 peptide: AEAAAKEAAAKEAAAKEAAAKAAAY
In short, it runs like this: (§1)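 Bound scFv was read as OD450 after HRP–anti-V5 detection, TMB development and HCl stop. PPE with BSA was incubated 1 h at RT on BSA-blocked wells coated overnight at 4° C. with peptide, or on streptavidin wells loaded 1 h with biotinylated PC-peptides at 1 μg/mL.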

Test [4] concerns the target T2, Peptide 4: Biotin-AGGGGSGGGGSGGGGSAAA-Tyr-acid (N-terminal biotin; C-terminal acid; no PC).
T2 construct: control peptide without PC
T2 peptide: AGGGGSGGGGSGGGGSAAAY
In short, it runs like this:
as §1

Chain of BSA (P02769 25-607 limits assumed): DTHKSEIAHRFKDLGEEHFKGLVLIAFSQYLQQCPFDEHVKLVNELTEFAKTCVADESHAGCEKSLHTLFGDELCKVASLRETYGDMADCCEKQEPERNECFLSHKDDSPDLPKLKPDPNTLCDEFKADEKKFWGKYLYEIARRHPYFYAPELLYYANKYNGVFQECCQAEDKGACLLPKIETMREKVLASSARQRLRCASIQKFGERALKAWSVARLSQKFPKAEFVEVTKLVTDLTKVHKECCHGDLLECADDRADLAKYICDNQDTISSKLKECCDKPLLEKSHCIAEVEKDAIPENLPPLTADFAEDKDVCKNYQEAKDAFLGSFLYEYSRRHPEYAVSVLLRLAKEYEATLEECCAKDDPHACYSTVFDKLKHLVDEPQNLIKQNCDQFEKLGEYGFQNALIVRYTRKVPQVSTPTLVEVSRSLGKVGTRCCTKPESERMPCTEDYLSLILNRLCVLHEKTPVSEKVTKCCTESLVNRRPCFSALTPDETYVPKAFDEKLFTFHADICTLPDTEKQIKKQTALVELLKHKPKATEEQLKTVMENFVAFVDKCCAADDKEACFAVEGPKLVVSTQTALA

B1: PcOxP_DB04_A09 (scFv, V domains shown)
VH: EVQLLESGGGLVQPGGSLRLSCAASGFTFSDYYMEWVRQAPGKGLEWVAASRNKWNDYTTEYADSVKGRFTISRDNSKNTLYLQMNSLRAEDTAVYYCARDYYGSSYWYFDVWGQGTLVTVSS
VL: DIQMTQSPSSLSASVGDRVTITCTAEESLYSSKHKVHYLAWYQQKPGKAPKLLIYGASNLYSGVPSRFSGSGSGTDFTLTISSLQPEDFATYYCAQFYSYPLTFGGGTKVEIK
notes: scFv in periplasmic extract
For B1, the OD450 in test [1] was 1.96 OD450; with BSA, 0.12 OD450; in test [2], 1.16 OD450; in test [3], 0.06 OD450; in test [4], 0.06 OD450.

B2: PcOxP_DB04_A10 (scFv, V domains shown)
VH: EVQLLESGGGLVQPGGSLRLSCAASGDTFSDFYMEWVRQAPGKGLEWVAASRNKWNDYTTEYADSVKGRFTISRDNSKNTLYLQMNSLRAEDTAVYYCARDYYGSSYWYFDVWGQGTLVTVSS
VL: DIQMTQSPSSLSASVGDRVTITCTASESLYSSKHKVHYLAWYQQKPGKAPKLLIYGASNRQIGVPSRFSGSGSGTDFTLTISSLQPEDFATYYCAQFYSYPLTFGGGTKVEIK
notes: scFv in periplasmic extract
As to B2, the OD450 came out at 1.61 OD450 in test [1]; 0.11 OD450 with BSA; 0.74 OD450 in test [2]; 0.06 OD450 in test [3]; 0.06 OD450 in test [4].

B3: PcOxP_DB04_C08 (scFv, V domains shown)
VH: EVQLLESGGGLVQPGGSLRLSCAASGETFSDFYMEWVRQAPGKGLEWVAASRNKANDYTTEYADSVKGRFTISRDNSKNTLYLQMNSLRAEDTAVYYCARDYYGSSYWYFDVWGQGTLVTVSS
VL: DIQMTQSPSSLSASVGDRVTITCTASESLYSSKHGVHYLAWYQQKPGKAPKLLIYGASNRYIGVPSRFSGSGSGTDFTLTISSLQPEDFATYYCAQFYQYPLTFGGGTKVEIK
notes: scFv in periplasmic extract
For the molecule B3, the OD450 in test [1] is 1.07 OD450; in the test with BSA, 0.08 OD450; in test [2] it was 0.69 OD450; in test [3] it was 0.06 OD450; in test [4], 0.05 OD450.

B4: PcOxP_DB04_A12 (scFv, V domains shown)
VH: EVQLLESGGGLVQPGGSLRLSCAASGFTFSDGYMEWVRQAPGKGLEWVAASRNKWNDYTTEYADSVKGRFTISRDNSKNTLYLQMNSLRAEDTAVYYCARDYYGSSYWYFDVWGQGTLVTVSS
VL: DIQMTQSPSSLSASVGDRVTITCTASESLYSSKHKVHYLAWYQQKPGKAPKLLIYGASNRYDGVPSRFSGSGSGTDFTLTISSLQPEDFATYYCAQFYSYPLTFGGGTKVEIK
notes: scFv in periplasmic extract
As to B4, the OD450 in test [1] was 1.38 OD450; with BSA it was 0.12 OD450; in test [2], 0.71 OD450; in test [3] it was 0.06 OD450; in test [4], 0.07 OD450.

B5: PcOxP_DB04_B08 (scFv, V domains shown)
VH: EVQLLESGGGLVQPGGSLRLSCAASGFTFSDDYMEWVRQAPGKGLEWVAASRNKANDYTTEYADSVKGRFTISRDNSKNTLYLQMNSLRAEDTAVYYCARDYYGSSYWYFDVWGQGTLVTVSS
VL: DIQMTQSPSSLSASVGDRVTITCTASESLYSSKHKVHYLAWYQQKPGKAPKLLIYGLSNRYIGVPSRFSGSGSGTDFTLTISSLQPEDFATYYCAQFFSYPLTFGGGTKVEIK
notes: scFv in periplasmic extract
For the molecule B5, the OD450 came to 1.56 OD450 in test [1]; 0.11 OD450 with BSA; 1.33 OD450 in test [2]; 0.05 OD450 in test [3]; 0.06 OD450 in test [4].

B6: PcOxP_DB04_F06 (scFv, V domains shown)
VH: EVQLLESGGGLVQPGGSLRLSCAASGDTFSDFYMEWVRQAPGKGLEWVAASRNKANDYTTEYADSVKGRFTISRDNSKNTLYLQMNSLRAEDTAVYYCARDYYGSSYWYFDVWGQGTLVTVSS
VL: DIQMTQSPSSLSASVGDRVTITCTASESLSSSKHKVHYLAWYQQKPGKAPKLLIYGASNRYIGVPSRFSGSGSGTDFTLTISSLQPEDFATYYCAQFYSYPLTFGGGTKVEIK
notes: scFv in periplasmic extract
For the molecule B6, the OD450 in test [1] is 1.3 OD450; in the test with BSA it was 0.1 OD450; in test [2], 0.75 OD450; in test [3], 0.06 OD450; in test [4], 0.06 OD450.

B7: PcOxP_DB04_C03 (scFv, V domains shown)
VH: EVQLLESGGGLVQPGGSLRLSCAASGFTTSDFYMEWVRQAPGKGLEWVAASRNKANSYTTEYADSVKGRFTISRDNSKNTLYLQMNSLRAEDTAVYYCARDYYGSSYWYFDVWGQGTLVTVSS
VL: DIQMTQSPSSLSASVGDRVTITCTASESLYSSKHKVHYLAWYQQKPGKAPKLLIYGASSLYSGVPSRFSGSGSGTDFTLTISSLQPEDFATYYCAQFYEYPLTFGGGTKVEIK
notes: scFv in periplasmic extract
With B7, the OD450 in test [1] amounted to 1.87 OD450; with BSA, 0.1 OD450; in test [2], 1.34 OD450; in test [3] it was 0.06 OD450; in test [4], 0.06 OD450.

B8: PcOxP_DB04_H07 (scFv, V domains shown)
VH: EVQLLESGGGLVQPGGSLRLSCAASGFTFEDFYMEWVRQAPGKGLEWVAASRNKANDYTTEYADSVKGRFTISRDNSKNTLYLQMNSLRAEDTAVYYCARDYYGSSYWYFDVWGQGTLVTVSS
VL: DIQMTQSPSSLSASVGDRVTITCTASESLYSSKHKVHYLAWYQQKPGKAPKLLIYGASNRVIGVPSRFSGSGSGTDFTLTISSLQPEDFATYYCAQFYSYPLTFGGGTKVEIK
notes: scFv in periplasmic extract
B8: the OD450 is 1.02 OD450 in test [1]; 0.09 OD450 with BSA; 0.58 OD450 in test [2]; 0.05 OD450 in test [3]; 0.06 OD450 in test [4].

B9: PcOxP_DB04_F11 (scFv, V domains shown)
VH: EVQLLESGGGLVQPGGSLRLSCAASGFTGSDFYMEWVRQAPGKGLEWVAASRGKGNSYTTEYADSVKGRFTISRDNSKNTLYLQMNSLRAEDTAVYYCARDYYGSSTWYFDVWGQGTLVTVSS
VL: DIQMTQSPSSLSASVGDRVTITCTASESLYSSKHKVHYLAWYQQKPGKAPKLLIYGASNRYAGVPSRFSGSGSGTDFTLTISSLQPEDFATYYCGQFYSYPLTFGGGTKVEIK
notes: scFv in periplasmic extract
For the molecule B9, the OD450 in test [1] turned out to be 1.27 OD450; with BSA, 0.1 OD450; in test [2] it was 0.58 OD450; in test [3], 0.06 OD450; in test [4], 0.07 OD450.

B10: PcOxP_DB04_D08 (scFv, V domains shown)
VH: EVQLLESGGGLVQPGGSLRLSCAASGFTFSDHYMEWVRQAPGKGLEWVAASRNKANDYTTEYADSVKGRFTISRDNSKNTLYLQMNSLRAEDTAVYYCARDYYGSSYWYFDVWGQGTLVTVSS
VL: DIQMTQSPSSLSASVGDRVTITCTASESLYSSKHKVHYLAWYQQKPGKAPKLLIYGASNRAIGVPSRFSGSGSGTDFTLTISSLQPEDFATYYCAQFYTYPLTFGGGTKVEIK
notes: scFv in periplasmic extract
B10: the OD450 in test [1] turned out to be 1.96 OD450; with BSA, 0.12 OD450; in test [2], 1.6 OD450; in test [3], 0.07 OD450; in test [4], 0.07 OD450.

B11: PcOxP_DB04_G06 (scFv, V domains shown)
VH: EVQLLESGGGLVQPGGSLRLSCAASGFTFSDFYMEWVRQAPGKGLEWVAASRWKANDYTTEYADSVKGRFTISRDNSKNTLYLQMNSLRAEDTAVYYCARDYYESSYWYFDVWGQGTLVTVSS
VL: DIQMTQSPSSLSASVGDRVTITCTASQSLYSSKHKVHYLAWYQQKPGKAPKLLIYGASNRYIGVPSRFSGSGSGTDFTLTISSLQPEDFATYYCAQFYVYPLTFGGGTKVEIK
notes: scFv in periplasmic extract
Regarding B11, the OD450 in test [1] was 1.12 OD450; in the test with BSA, 0.11 OD450; in test [2], 1.03 OD450; in test [3], 0.07 OD450; in test [4], 0.07 OD450.
